Test results taken from the supplement of paper PMC7125110.
± gives the standard error. For part of these data: Variants at the floor of the assay were thinned out.

B1: glmS ribozyme (parent)
chain: AUAAAAGCGCCAGAACUACAGAAAUGUAGUUGACGAGGAGGAGGUUUAUCGAAUUUUCGGCGGAUGCCUCCAAA

Assays:
Details in all cases: with glucosamine-6-phosphate
glucosamine-6-phosphate [1] = variants of: B1; assay: kcat; higher = faster cleavage; RNA array
Method in brief: (§1)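 Weighted Michaelis–Menten fits across concentrations supplied kcat and KM, based on kobs from one- or two-exponential decay fits to normalised per-tile medians. The data came from barcoded ribozyme variants transcribed in situ by E. coli RNA polymerase on sequenced MiSeq chips and tracked at 37 °C by a hybridised Cy3 probe. Glucosamine-6-phosphate (40 μM to 10 mM) in HEPES/KCl/Mg(OAc)2 buffer was flowed in.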

glucosamine-6-phosphate [2] = variants of: B1; assay: KM; higher = weaker cofactor use; RNA array
Method in brief: as §1

glucosamine-6-phosphate [3] = variants of: B1; assay: self-cleavage kobs at 40 uM GlcN6P; higher = faster cleavage; RNA array
Method in brief: as §1

glucosamine-6-phosphate [4] = variants of: B1; assay: self-cleavage kobs at 160 uM GlcN6P; higher = faster cleavage; RNA array
Method in brief: as §1

glucosamine-6-phosphate [5] = variants of: B1; assay: self-cleavage kobs at 640 uM GlcN6P; higher = faster cleavage; RNA array
Method in brief: as §1

glucosamine-6-phosphate [6] = variants of: B1; assay: self-cleavage kobs at 2500 uM GlcN6P; higher = faster cleavage; RNA array
Method in brief: as §1

glucosamine-6-phosphate [7] = variants of: B1; assay: self-cleavage kobs at 10000 uM GlcN6P; higher = faster cleavage; RNA array
Method in brief: as §1

| Variant | kcat (glucosamine-6-phosphate [1]) [s⁻¹] | KM (glucosamine-6-phosphate [2]) [µM] | self-cleavage kobs at 40 uM GlcN6P (glucosamine-6-phosphate [3]) [s⁻¹] | self-cleavage kobs at 160 uM GlcN6P (glucosamine-6-phosphate [4]) [s⁻¹] | self-cleavage kobs at 640 uM GlcN6P (glucosamine-6-phosphate [5]) [s⁻¹] | self-cleavage kobs at 2500 uM GlcN6P (glucosamine-6-phosphate [6]) [s⁻¹] | self-cleavage kobs at 10000 uM GlcN6P (glucosamine-6-phosphate [7]) [s⁻¹] |
| --- | --- | --- | --- | --- | --- | --- | --- |
| U31G U55C | 0.00961 ± 0.0014 | 1860 ± 410 | 0.000203 ± 4.2e-05 | 0.001 ± 0.00031 | 0.00232 ± 0.00064 | 0.00461 ± 0.0011 | 0.00884 ± 0.0015 |
| C10A U54G | < 1e-05 | – | < 1e-05 | – | – | – | – |
| U54C U69A | 0.000112 ± 7.5e-06 | 82 ± 22 | 3.96e-05 ± 1.5e-05 | 6.58e-05 ± 2.2e-05 | 0.000111 ± 3.8e-05 | 0.000123 ± 3.1e-05 | 0.000105 ± 2e-05 |
| A15C U57G | 2.37e-05 ± 5.5e-06 | – | < 1e-05 | < 1e-05 | – | – | – |
| A15U A39C | 0.00112 ± 0.00025 | 1960 ± 980 | 3.4e-05 ± 6.3e-06 | – | 0.000287 ± 3.8e-05 | 0.000499 ± 5.7e-05 | 0.00102 ± 7.3e-05 |
| U30A A53G | 0.00645 ± 0.0027 | – | 0.000256 ± 5.1e-05 | 0.000553 ± 0.00023 | 0.00196 ± 0.00055 | 0.00301 ± 0.00096 | 0.00929 ± 0.002 |
| G13C U56C | 2.35e-05 ± 6.9e-08 | 1100 ± 19 | < 1e-05 | – | – | – | 2.11e-05 ± 8e-06 |
| A14G A33G | < 1e-05 | – | < 1e-05 | < 1e-05 | – | < 1e-05 | < 1e-05 |
| A12C C70U C71U | 0.000174 ± 1.1e-05 | 1270 ± 200 | – | – | 6.04e-05 ± 1.5e-05 | – | 0.000154 ± 2.8e-05 |
| G37U C58U | < 1e-05 | – | – | – | – | – | < 1e-05 |
| U54G U57G | 3.71e-05 ± 3.7e-06 | 1500 ± 710 | – | – | – | – | 3.21e-05 ± 1.2e-05 |
| C11A C70U | 0.000155 ± 1e-05 | 210 ± 71 | 2.69e-05 ± 1e-05 | 6.69e-05 ± 1.4e-05 | 0.00011 ± 1.2e-05 | 0.000168 ± 1.4e-05 | 0.000145 ± 9.7e-06 |
| U30G C68U | 0.00118 ± 0.00027 | 3820 ± 1500 | – | – | 0.000154 ± 3.1e-05 | 0.000642 ± 0.00015 | 0.000827 ± 0.00013 |
| C67A C70U | 0.00153 ± 0.00062 | – | 9.1e-05 ± 9.4e-06 | 0.000211 ± 3.6e-05 | 0.000461 ± 6.6e-05 | 0.00129 ± 0.00019 | 0.00206 ± 0.00033 |
| C58A C68A | 3.68e-05 ± 1.1e-05 | – | – | 4.01e-05 ± 1.7e-05 | 5.26e-05 ± 1.6e-05 | 3.75e-05 ± 1.7e-05 | – |
| G35A G37A | < 1e-05 | – | – | < 1e-05 | – | – | – |
| U46A U65C | 0.000937 ± 0.00023 | 2440 ± 1100 | – | 4.37e-05 ± 1.8e-05 | 0.00029 ± 6.2e-05 | 0.000426 ± 8.2e-05 | 0.000782 ± 0.00014 |
| A15U G59U | < 1e-05 | – | < 1e-05 | < 1e-05 | – | – | – |

| Variant | kcat (glucosamine-6-phosphate [1]) [s⁻¹] | KM (glucosamine-6-phosphate [2]) [µM] | self-cleavage kobs at 40 uM GlcN6P (glucosamine-6-phosphate [3]) [s⁻¹] | self-cleavage kobs at 160 uM GlcN6P (glucosamine-6-phosphate [4]) [s⁻¹] | self-cleavage kobs at 640 uM GlcN6P (glucosamine-6-phosphate [5]) [s⁻¹] | self-cleavage kobs at 2500 uM GlcN6P (glucosamine-6-phosphate [6]) [s⁻¹] | self-cleavage kobs at 10000 uM GlcN6P (glucosamine-6-phosphate [7]) [s⁻¹] |
| --- | --- | --- | --- | --- | --- | --- | --- |
| G40U A52G | 0.000217 ± 3.4e-05 | 1490 ± 600 | – | – | 7.61e-05 ± 1.5e-05 | 0.000112 ± 1.8e-05 | 0.000206 ± 2.5e-05 |
| G32C U45G | 2.74e-05 ± 2.5e-06 | 2960 ± 1000 | < 1e-05 | < 1e-05 | – | – | – |
| U54A U57C | 0.000159 ± 5.5e-06 | 2020 ± 160 | – | – | 3.98e-05 ± 1e-05 | 8.52e-05 ± 1.3e-05 | 0.000134 ± 2.1e-05 |
| U30G G59U | 1.09e-05 ± 1.8e-06 | – | < 1e-05 | – | – | – | – |
| G37A G41C | 2.41e-05 ± 9.5e-06 | – | – | – | – | 3.87e-05 ± 1.5e-05 | – |
| A12U C50U C67G | 4.36e-05 ± 2.1e-05 | – | – | – | 6.16e-05 ± 2.1e-05 | – | – |
| U56A U57G | 0.000127 ± 3.4e-05 | – | – | – | 3.45e-05 ± 1.3e-05 | 4.92e-05 ± 1e-05 | 0.000102 ± 2e-05 |
| A6U C16U C68U | 9.14e-05 ± 3.2e-06 | 625 ± 120 | – | – | – | 7.4e-05 ± 1.9e-05 | 8.55e-05 ± 2e-05 |
| C16G A39G | 0.0108 ± 0.0041 | – | 0.000228 ± 4.9e-05 | 0.000353 ± 0.00011 | 0.00194 ± 0.00038 | 0.00841 ± 0.0019 | 0.00779 ± 0.0013 |
| A52U U54C | 0.000603 ± 4.5e-05 | 2570 ± 310 | – | 3.57e-05 ± 9.5e-06 | 0.000115 ± 1.9e-05 | 0.000318 ± 5e-05 | 0.000462 ± 8.6e-05 |
| U55C U69A | 1.74e-05 ± 6.8e-06 | – | – | – | – | – | – |
| A39U U46C | 0.0117 ± 0.0022 | 2780 ± 640 | 0.000154 ± 1.5e-05 | 0.000743 ± 0.00014 | 0.00284 ± 0.00046 | 0.00541 ± 0.0019 | 0.00883 ± 0.0013 |
| C16U G37U | < 1e-05 | – | < 1e-05 | – | – | – | – |
| G7A G38A | < 1e-05 | – | – | – | – | – | – |
| G35U G37A G60U | < 1e-05 | – | – | – | – | < 1e-05 | – |
| C8G C10A | < 1e-05 | – | < 1e-05 | < 1e-05 | < 1e-05 | < 1e-05 | < 1e-05 |
| G29C G40A | 0.000208 ± 2.8e-05 | 747 ± 260 | – | 3.05e-05 ± 9.1e-06 | 0.000102 ± 1.6e-05 | 0.000221 ± 3.6e-05 | 0.000178 ± 2.1e-05 |
